Reference: a protein production outcome set (Wang et al. 2014)

Test: label from the status in PepcDB records

Sequence | protein production
MAELLAAGPSGVAGAVARAMERSAPGSGASWYGGDHTDFRDGVFLREVIGVQVVVQEGGTAVPEAMTGLPPRPGGFTGRDRETEDLLRALDPDGAQSAAAPVASVSGLGGIGKTALAVETAHLARERGWFPGGILFIDLHGYDREPVTADRSLRTLLHALGIPPEHMPTTTDERAALYRSTLAVRAGERGGMLVLADNASSAEQVRPLLPGDFRHRVLVTSRDRLPQLGARLLPLDELGTREAYELLDRALRIADPHDGRVGDDPGTTGRLASLCGHLPLALQIAAALLAADPAKPVSELVAELAEAHDRLDHLDDGERSVRAAFELSYRRLPPEQARLLRLLALAPGPEVSDEVVAALVGADRPPVRDQHALARAHLVERGHTRGSWRLHDLVRVFGAGVVARAEGDAARARVLRHYLERARAADARLKPRTEDDEGTRPFRSREEALAWFDAERAGLVAAVQWATDRQLAADAVRLAGALGEYLDWRRRFDDSVTVCGAVCAAARRAGDEAAEAAAWNRTGTALRGNRRLREAYDAHRRAHDLYDALGHDNGRAMALSNLGAILGDVGQVDDAVDAFRLALGLFRRTGDRHSEAGVWNNLALILRKSGRVDEALDALRSALGLYRETGDRPREGRARHNYAVALNARGRTAEAVTACLDSLDICEEFEDWHGAARTLYALGLVHETAGDAERARVRMTQAADAYERAGSPKEAEQARRAARLTGPAPTGTPAPAAPPDRTADSGPPGPRPPGVPGNAGP | failed
SIDSKLQTLGEQLMQGKRGAIVMIEPETGEVLCLVSSPSYDPSLLAGKDRGKNHLEMEHDRNKPLYARAIQATYPPGSTFKPAQGAIFLQEGVIRPTDAFSCYHGFPPLNNRPACHSHGSPLSLVPALATSCNAFFCWGLRAMLDNRRFYPSVQEAFEHWKNRIVGLGFGYRLGLDLPGERRGYIPNSKVYDKAYKGRWNSSTIISISIGQGEILATPLQIANLGVIIANRGRYRRPHVVKAIQGIPLDTAYTNWQNSGISPANMEYIVEGMARAVTGGTCHAANFAPGEIEVCGKTGTAENPHGKDHSAFLGFAPRNNPKVVVSVYVENGGFGAVYGVPIGRVMMEYYLREGKLSPEGEAVATKMSNTAIHYSNVF | failed
RKTEKVVNNGIPWFDDRGEIVNAHGACIVEENGRYYLFGEYKSDKSNAFPGFSCYSSDDLVNWKFERVVLPMQSSGILGPDRVGERVKVMKCPSTGEYVMYMHADDMNYKDPHIGYATCSTIAGEYKLHGPLLYEGKPIRRWDMGTYQDTDGTGYLLLHGGIVYRLSKDYRTAEEKVVSGVGGSHGESPAMFKKDGTYFFLFSNLTSWEKNDNFYFTAPSVKGPWTRQGLFAPEGSLTYNSQTTFVFPLKCGEDTIPMFMGDRWSYPHQASAATYVWMPMQVDGTKLSIPEYWPSWDVDKLKPVNPLRKGKTVDLKKITFSKEADWKVEEGRISSNVKGSTLSIPFTGSCVAVMGETNCHSGYARMNILDKKGEKIYSSLVDFYSKANDHATRFKTPQLAEGEYTLVIEVTGISPTWTDKTKRIYGSDDCFVTITDIVKL | not failed
MHKTAFIWTDEYYNYSFPDYHPFKSLRESMTKRLLEERGAFHFITLVEPKSIPEEALQLVHSKEYIEFVKYKSKEGQGYLDDGDTPAFKGIYEAALIRVSGSVKALELIKSGEFNHTINIGGGFHHAKRNRAAGFCVFNDVALISKLGESFFSRIAIVDIDGHHADGTQELLIDDNNILKISLHMFHPNFFPGTGDVNEIGLGKGEGYTINIPLPPGTGDDGYLLAFDEIVVPAIERYKPELIILVAGGDSHFNDPLVELKLSTHGYLDVVTKIHRLVHEYSNGRLIMLGGGGYNYDATARIWTISIAEIAGIYDLEYETLHDSFSTKSSQFVMEKIRNTISLIKKIHSLN | failed
MVRIRWFFIRHAESEANVVERWRIAGRSEAARLTERGERQARVVGEAVAIRLEQVLRVDGGDAGGVSGDAGRRRVLAPVAFTSPLLRARQTAALVLEQVAQPVKLEPVDDLAEVYQGLWEDALRSEVHTPETLQAMARNPYEFRAPGGEAQADVERRVLRAVSRMSQRVLSLLSLELEENEQTDVIVLVFTHGYVCKCLIRSVLDASPHLTGQIQVDNGALVELWLEPAAQQGALTSAAELGMWTVLRINDTWGQLTASMR | failed
MPSEVTEEFIIIIAVVLIGLVLFGFVTSYFIPHEIFSLAQQQASSISSSTTVSVGPLIFNSGSASTVIEAYNPAISGNITLIVFPEPSYLQQDVGLVTPQSPPQFSVYLSNEKLAKSFTISIPIYDVNGRIIYDSQITAYTVPFNTPVTITVNGVGGSNYILIVWVLYNSNGYWFRIGYTFTGVPST | failed
MKFIIEALKRVRERRPLVHNITNFVVMNTTANALLALGASPVMAHAEEELEEMIRLADAVVINIGTLDSGWRRSMVKATEIANELGKPIVLDPVGAGATKFRTRVSLEILSRGVDVLKGNFGEISALLGEEGKTRGVDSLEYGEEEAKKLTMNAAREFNTTVAVTGAVDYVSDGRRTFAVYNGHELLGRVTGTGCMVAALTGAFVAVTEPLKATTSALVTFGIAAEKAYEEAKYPGSFHVKLYDWLYRINENVIRTYAKVREVEL | not failed
MDLFSNLALGFQVAASPTNLLLCLTGALVGTLIGVLPGIGTIATVAMLLPITFGLPPVGALIMLAGIYYGAQYGGSTTSILVNIPGEATSVVTTLDGFQMAKQGRAGPALAIAAIGSFAAGCFATVLIALVGEPLTRLALEFGPAEYFSLMVLGLVFAVVLARGSVLKAVAMIVLGLLLSTVGSDIETGVSRMTFDVPELADGLGFATVAMGVFGFAEIIRNLDFGAATDRELVQQKITGLMPTRKDLRDAAPAIGRGTLLGSLLGILPGGGAVIASFAAYTLEKKIARDPKRFGRGAIEGVAAPESANNAAAQTSFIPLLTLGIPPNAVMALMVGAMTIHNIVPGPQVMKNQPELVWGMIASMWIGNLMLLVINLPLVGIWVRLLRVPYRLMFPSIVVFCCIGIYSVNNAPVDVVLAGAFGLIGYWLVKHDFEPAPLLLGMVLGPLMEDNLRRALLISRGDATAFVTRPLSASLLVVAAGLLILSVLPMLRRKRDEVFVESEG | failed
MAKIFVVGGSGRVASELIKNLINDGNQVFASSRHPEKIIKLDNVVPVKLDLHSDVSAWSEVFKGMDVIYFVAGSRGKDLLQTDAMGAVKTMQAAENVGVKRYIMLSSLYALQPEKWSQYESLAALTDYNIAKFFADNYLVNDTKLDYTVVQPASLTEETGTGRVSFNEIISNTNPIPDVAKVLAEVIKHNNTIGKVIMMCSGDNPIETALKDI | failed
MSIEPVFILVRPQMGENIGAAARAMLNFGLGRLRIVDPRDGWPNPKAVAMASGAGRLLDHAGLFPTVAEAIRDCDYVFATTARGRELTKPVMTPERAMAHGRALTGEGRRVGILFGPERTGLENEDVALANAIVTVPVNPEFFSLNLAQCVLLLAYEWRRQHDETPPEVIDMARVDFASGLEVEKLGDHFEEKLEAAGFFFPPEKAPGMKLNLRNMWARLPLTRADVQTLHGMLRQIAWKLKQ | not failed
SDSPEQESADDALKRIVDGFQHFRREVFPEQQALFKKLANSQRPRAMFITCADSRIVPELITQSSPGDLFVTRNVGNVVPPYGQMNGGVSTAIEYAVLALGVHHIIVCGHSDCGAMRAVLDPQTLERMPTVKAWLRHAEVARTVVADNCDCGASHDTLGVLTEENVVAQLDHLRTHPSVASRLASGQLFIHGWVYDIESAQIRAYDAKQGRFLPLDGEHPVPMATPAPRYLSS | failed
MQGGRFMGNKNLIITIEREYGSGGRIVGKKLAEELGIHFYDDDILKLASEKSAVGEQFFRLADEKAGNNLLYRLGGGRKIDLHSKPSPNDKLTSPENLFKFQSEVMRELAESEPCIFVGRAAGYVLDQDEDIERLIRIFVYTDKVKKVQRVMEVDCIDEERAKRRIKKIEKERKEYYKYFTGSEWHSMKNYDLPINTTKLTLEETAELIKAYIRLKGFMD | not failed
YKGKNLIMIQVEALQQFVINSKVENQEITPNLNRWINKSLYFNNFFYQVSSGNTSDAEFLANNSFYPAASGAAYYLYAGNTYSSLAKEMNDNNYYTAVLHGYKEGFWNRNVMYKAEKFKDFFGEKSFNINENVGLGLSDKSFLNQSFNKLKSFSSPYYSFIITLSSHYPYDDTKGYGDFNVGDYEGTLLGNYLKGIHYTDAQLGTFLDKLEKSGIMDNSVVILYGDHYAIPKDKINDLYDFENIKNPTDLDWYELQKVPMLIHFPKDQYKGINSEYSGQIDLYPTIANMFNLPQNYMLGTDLFASKNRNVIFRNGSFTDGNVFYVSWTNTYYDIKTGS | failed
